Data taken from US20210373004A1 (BIOASTER, published 2021).

Columns and labels:
[1] = target: T1, Flag-mCherry-ColLeaf-Cys-6His (Pseudomonas sp Leaf83); experiment: EIA 8 plex n° 2: colicin coated at 100 nM, Im-RLuc8 at 100 nM, luminescence; light bar alone, dark bar with the 7 other unfused Im proteins
[2] = target: T2, Flag-mCherry-ColErw-Cys-6His (Pectobacterium carotovorum); experiment: EIA 8 plex n° 2: colicin coated at 100 nM, Im-RLuc8 alone at 100 nM, luciferase signal (FIG. 4, light grey bars)
[3] = target: T2, Flag-mCherry-ColErw-Cys-6His; experiment: EIA 8 plex n° 1: colicin coated at 100 nM, Im-RLuc8 alone at 100 nM, luciferase signal (FIG. 3, light grey bars)
Flag-EmGFP-ColE2-6His [4] = target: T3, Flag-EmGFP-ColE2-6His (Escherichia coli); experiment: EIA 8 plex n° 1: colicin coated at 100 nM, Im-RLuc8 at 100 nM, luminescence; light bar alone, dark bar with the 7 other unfused Im proteins
T3 construct: Coated on the plate or sprayed on the membrane; also called Colicin E2

[5] = target: T4, Flag-mCherry-ColKhan-Cys-6His (Photorhabdus khanii); experiment: as above
[6] = target: T5, Flag-mCherry-ColAP41-Cys-6His (Pseudomonas aeruginosa AP41); experiment: as above
Flag-mCherry-ColE9-6His [7] = target: T6, Flag-mCherry-ColE9-6His (Escherichia coli); experiment: as above
T6 construct: also called Colicin E9

Flag-EmGFP-ColE7-6His [8] = target: T7, Flag-EmGFP-ColE7-6His (Escherichia coli); experiment: as above
T7 construct: also called Colicin E7

[9] = target: T8, Flag-mCherry-ColSyr-Cys-6His (Pseudomonas syringae B728A); experiment: as above
Flag-mCherry-ColE8-6His = target: T9, Flag-mCherry-ColE8-6His (Escherichia coli); experiment: as above
T9 construct: also called Colicin E8

[10] = target: T2, Flag-mCherry-ColErw-Cys-6His; experiment: EIA 8 plex n° 1: colicin coated at 100 nM, Im-RLuc8 alone at 100 nM, luciferase signal
[11] = target: T4, Flag-mCherry-ColKhan-Cys-6His; experiment: EIA 8 plex n° 2: colicin coated at 100 nM, Im-RLuc8 alone at 100 nM, luciferase signal (FIG. 4, light grey bars)
[12] = target: T4, Flag-mCherry-ColKhan-Cys-6His; experiment: EIA 8 plex n° 1: colicin coated at 100 nM, Im-RLuc8 alone at 100 nM, luciferase signal (FIG. 3, light grey bars)
Flag-EmGFP-ColE2-6His [13] = target: T3, Flag-EmGFP-ColE2-6His; experiment: EIA 8 plex n° 2: colicin coated at 100 nM, Im-RLuc8 at 100 nM, luminescence; light bar alone, dark bar with the 7 other unfused Im proteins
[14] = target: T2, Flag-mCherry-ColErw-Cys-6His; experiment: as above
[15] = target: T4, Flag-mCherry-ColKhan-Cys-6His; experiment: as above
[16] = target: T5, Flag-mCherry-ColAP41-Cys-6His; experiment: as above
Flag-mCherry-ColE9-6His [17] = target: T6, Flag-mCherry-ColE9-6His; experiment: as above
[18] = target: T8, Flag-mCherry-ColSyr-Cys-6His; experiment: as above
[19] = target: T1, Flag-mCherry-ColLeaf-Cys-6His; experiment: EIA 8 plex n° 2: colicin coated at 100 nM, Im-RLuc8 alone at 100 nM, luciferase signal (FIG. 4, light grey bars)
Flag-EmGFP-ColE7-6His [20] = target: T7, Flag-EmGFP-ColE7-6His; experiment: EIA 8 plex n° 1: colicin coated at 100 nM, Im-RLuc8 alone at 100 nM, luciferase signal
[21] = target: T8, Flag-mCherry-ColSyr-Cys-6His; experiment: EIA 8 plex n° 2: colicin coated at 100 nM, Im-RLuc8 alone at 100 nM, luciferase signal (FIG. 4, light grey bars)
[22] = target: T8, Flag-mCherry-ColSyr-Cys-6His; experiment: EIA 8 plex n° 1: colicin coated at 100 nM, Im-RLuc8 alone at 100 nM, luciferase signal (FIG. 3, light grey bars)
[23] = target: T2, Flag-mCherry-ColErw-Cys-6His; experiment: EIA 8 plex n° 1: colicin coated at 100 nM, Im-RLuc8 at 100 nM, luminescence; light bar alone, dark bar with the 7 other unfused Im proteins

B1: Myc-RLuc8-ImErw-Avitag-6His (other)
chain: MGGEQKLISEEDLGGSASKVYDPEQRKRMITGPQWWARCKQMNVLDSFINYYDSEKHAENAVIFLHGNATSSYLWRHVVPHIEPVARCIIPDLIGMGKSGKSGNGSYRLLDHYKYLTAWFELLNLPKKIIFVGHDWGAALAFHYAYEHQDRIKAIVHMESVVDVIESWDEWPDIEEDIALIKSEEGEKMVLENNFFVETVLPSKIMRKLEPEEFAAYLEPFKEKGEVRRPTLSWPREIPLVKGGKPDVVQIVRNYNAYLRASDDLPKLFIESDPGFFSNAIVEGAKKFPNTEFVKVKGLHFLQEDAPDEMGKYIKSFVERVLKNEQKLPGGSNLKEKLEDYTEAEFISYLKEFFDNPMGLRGKELETHLDSLVEHFDKIVFHPEGNGLIFYPPDERDDSPEGVLNEIKRWRKSQGLPLFKDSKGGSGGSGLNDIFEAQKIEWHELEGGGSHHHHHH
notes: Immunity protein fused to the luciferase RLuc8 as reporter; added in solution; also called ImErw-Rluc8
binding result [1]: no binding (tested: 100 nM)
RLU [2]: > 2.4e+06 RLU
RLU [3]: > 2e+06 RLU
binding result (Flag-EmGFP-ColE2-6His [4]): no binding (tested: 100 nM)
binding result [5]: binds
binding result [6]: no binding (tested: 100 nM)
binding result (Flag-mCherry-ColE9-6His [7]): no binding (tested: 100 nM)
binding result (Flag-EmGFP-ColE7-6His [8]): no binding (tested: 100 nM)
binding result [9]: no binding (tested: 100 nM)
binding result (Flag-mCherry-ColE8-6His): no binding (tested: 100 nM)

B2: Avitag-RLuc8-ImKhan-6His (other)
chain: MGLNDIFEAQKIEWHEGGSGGSGGSASKVYDPEQRKRMITGPQWWARCKQMNVLDSFINYYDSEKHAENAVIFLHGNATSSYLWRHVVPHIEPVARCIIPDLIGMGKSGKSGNGSYRLLDHYKYLTAWFELLNLPKKIIFVGHDWGAALAFHYAYEHQDRIKAIVHMESVVDVIESWDEWPDIEEDIALIKSEEGEKMVLENNFFVETVLPSKIMRKLEPEEFAAYLEPFKEKGEVRRPTLSWPREIPLVKGGKPDVVQIVRNYNAYLRASDDLPKLFIESDPGFFSNAIVEGAKKFPNTEFVKVKGLHFLQEDAPDEMGKYIKSFVERVLKNEQGGGSTAGGGGSELKNKLEDYTEAEFLSLLNKIWAVDVSEEEHDNLIDHFEKLSEHPNGNGLIFYPENGVEDSPEGVLKVIKEWRAKNGKPGFKKLEGGGSHHHHHH
notes: Immunity protein fused to the luciferase RLuc8 as reporter; added in solution; also called ImKhan-Rluc8; ImKahn
RLU [10]: > 100000 RLU
binding result [1]: no binding (tested: 100 nM)
RLU [11]: > 2.4e+06 RLU
RLU [12]: > 2e+06 RLU
binding result (Flag-EmGFP-ColE2-6His [4]): no binding (tested: 100 nM)
binding result [6]: no binding (tested: 100 nM)
binding result (Flag-mCherry-ColE9-6His [7]): no binding (tested: 100 nM)
binding result (Flag-EmGFP-ColE7-6His [8]): no binding (tested: 100 nM)
binding result [9]: no binding (tested: 100 nM)
binding result (Flag-mCherry-ColE8-6His): no binding (tested: 100 nM)

B3: Avitag-RLuc8-ImLeaf-6His (other)
chain: MGLNDIFEAQKIEWHEGGSGGSGGSASKVYDPEQRKRMITGPQWWARCKQMNVLDSFINYYDSEKHAENAVIFLHGNATSSYLWRHVVPHIEPVARCIIPDLIGMGKSGKSGNGSYRLLDHYKYLTAWFELLNLPKKIIFVGHDWGAALAFHYAYEHQDRIKAIVHMESVVDVIESWDEWPDIEEDIALIKSEEGEKMVLENNFFVETVLPSKIMRKLEPEEFAAYLEPFKEKGEVRRPTLSWPREIPLVKGGKPDVVQIVRNYNAYLRASDDLPKLFIESDPGFFSNAIVEGAKKFPNTEFVKVKGLHFLQEDAPDEMGKYIKSFVERVLKNEQGGGSTAGGGGSKRQFADYTEAEFIAFMEDIFRENEAETDDRLDVLLDQFREITGHPDGTDLIYYCESDAECTPERITQKVKSWRAANGLPGFKSTLEGGGSHHHHHH
notes: Immunity protein fused to the luciferase RLuc8 as reporter; added in solution; also called ImLeaf-Rluc8
binding result (Flag-EmGFP-ColE2-6His [13]): no binding (tested: 100 nM)
binding result [14]: no binding (tested: 100 nM)
binding result [15]: no binding (tested: 100 nM)
binding result [16]: no binding (tested: 100 nM)
binding result (Flag-mCherry-ColE9-6His [17]): no binding (tested: 100 nM)
binding result [18]: no binding (tested: 100 nM)
RLU [19]: > 2.4e+06 RLU

B4: Myc-RLuc8-ImSyr-Avitag-6His (other)
chain: MGGEQKLISEEDLGGSASKVYDPEQRKRMITGPQWWARCKQMNVLDSFINYYDSEKHAENAVIFLHGNATSSYLWRHVVPHIEPVARCIIPDLIGMGKSGKSGNGSYRLLDHYKYLTAWFELLNLPKKIIFVGHDWGAALAFHYAYEHQDRIKAIVHMESVVDVIESWDEWPDIEEDIALIKSEEGEKMVLENNFFVETVLPSKIMRKLEPEEFAAYLEPFKEKGEVRRPTLSWPREIPLVKGGKPDVVQIVRNYNAYLRASDDLPKLFIESDPGFFSNAIVEGAKKFPNTEFVKVKGLHFLQEDAPDEMGKYIKSFVERVLKNEQKLPGGSIFKEKIEDYTEEEFLEFLKGLSSEYSQLHGDEFIKHMDRSVEHFVKITEHPAQTDVIFYPEEGQEDTPEGILKVIKEWRAKNGKPGFKSGGSGGSGLNDIFEAQKIEWHELEGGGSHHHHHH
notes: Immunity protein fused to the luciferase RLuc8 as reporter; added in solution; also called ImSyr-Rluc8
RLU (Flag-EmGFP-ColE7-6His [20]): > 100000 RLU
binding result [15]: no binding (tested: 100 nM)
binding result [1]: no binding (tested: 100 nM)
RLU [21]: > 2.4e+06 RLU
RLU [22]: > 2e+06 RLU
binding result (Flag-EmGFP-ColE2-6His [4]): no binding (tested: 100 nM)
binding result [23]: no binding (tested: 100 nM)
binding result (Flag-mCherry-ColE9-6His [7]): no binding (tested: 100 nM)
binding result (Flag-mCherry-ColE8-6His): no binding (tested: 100 nM)
